Results reported in publication PMC8907193, “The YΦ motif defines the structure-activity relationships of human 20S proteasome activators” (Nature Communications, 2022).
Where two headings read alike, the source gives them in different places.

Columns and labels:
[1] = biological target: human 20S proteasome (human) (UniProt P60900)
[2] = biological target: biotinylated human 20S proteasome (human) (UniProt P60900); assay: BLI

Substance: PA26^AY
- EC50 of stimulation of h20S activity [1]: 8.3 nM

Substance: PA26^AY (from UniProt Q9U8G2)
- Kd [2]: 0.28 nM
- koff [2]: 0.0004 s⁻¹

Substance: PA26^E102A (disabled-loop mutant) (from UniProt Q9U8G2)
- Kd ([2]; natural protein): > 100 nM

Substance: PA26^YA
- EC50 of stimulation of h20S activity [1]: > 3000 nM
- stimulation of h20S activity, loss against PA26^YY [1]: 80 % reduction

Substance: PA26^YA (from UniProt Q9U8G2)
- Kd [2]: 36 nM
- koff [2]: 0.011 s⁻¹
